The text below walks through data of US20020025558A1.

For the assay, the target named is human MADr3 (human). The assay is described as follows: cell-based or functional assay.

For the substance TGF-β receptor, the signal to noise ratio of 33P phosphorylation at 0.01 units of TGF-β receptor, MADr3 coated at 750 ng/well turned out to be 50 and the signal to noise ratio of 33P phosphorylation on MADr3-coated FlashPlate was > 10.
